Measurements: paper PMC10563079 (Molecules, 2023)
Read-outs that look alike come from different tables or passages of the source. Bridge positions count the residues as written; N and C are the ends. Ends that are not written are not given here. Peptide text beside a SMILES is read from it.

T1: full-length PHGDH (1-533) (Homo sapiens, UniProt O43175)
T1 construct: the full-length PHGDH (1-533); made in house
T1 sequence (O43175 1-533): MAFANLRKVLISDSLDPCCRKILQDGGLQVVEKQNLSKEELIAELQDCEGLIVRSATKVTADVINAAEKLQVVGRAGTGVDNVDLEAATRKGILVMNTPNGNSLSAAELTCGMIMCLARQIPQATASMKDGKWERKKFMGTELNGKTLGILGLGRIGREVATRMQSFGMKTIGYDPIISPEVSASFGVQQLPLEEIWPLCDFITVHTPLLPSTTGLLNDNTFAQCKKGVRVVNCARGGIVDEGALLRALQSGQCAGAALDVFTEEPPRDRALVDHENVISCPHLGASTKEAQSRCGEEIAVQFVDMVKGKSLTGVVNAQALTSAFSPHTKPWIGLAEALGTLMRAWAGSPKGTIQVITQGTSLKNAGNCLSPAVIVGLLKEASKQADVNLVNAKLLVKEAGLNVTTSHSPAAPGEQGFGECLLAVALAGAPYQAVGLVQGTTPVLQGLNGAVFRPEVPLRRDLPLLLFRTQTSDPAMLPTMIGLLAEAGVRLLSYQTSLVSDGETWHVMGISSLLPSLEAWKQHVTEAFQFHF

T2: sPHGDH (1-307) (Homo sapiens, UniProt O43175)
T2 construct: the truncated version of PHGDH (sPHGDH, 1-307); made in house
T2 sequence (O43175 1-307): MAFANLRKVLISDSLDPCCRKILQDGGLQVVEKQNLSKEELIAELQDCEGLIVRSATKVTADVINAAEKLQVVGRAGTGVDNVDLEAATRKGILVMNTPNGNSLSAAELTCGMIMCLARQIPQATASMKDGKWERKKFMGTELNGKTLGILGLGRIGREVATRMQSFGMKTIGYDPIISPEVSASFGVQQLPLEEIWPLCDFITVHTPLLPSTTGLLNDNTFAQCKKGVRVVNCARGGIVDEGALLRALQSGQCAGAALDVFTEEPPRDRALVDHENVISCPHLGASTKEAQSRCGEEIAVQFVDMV

T3: truncated version of PHGDH (sPHGDH, 1-307) (human, UniProt O43175 1-307, labelled with Monolith NT.115 Protein Labeling Kit RED-NHS (in the MST assay only))
T3 sequence (looked up): T2 sequence (O43175 1-307)

T4: full-length PHGDH (1-533) (human, UniProt O43175 1-533)
T4 sequence (looked up): T1 sequence (O43175 1-533)

B1: cyclic peptide cyc1-9 (peptide)
peptide: CTPQATASMKNGSWQEKKC
modifications: disulfide 1-19; not fully specified (N-terminus); printed as C_1_TPQA TASMK NGSWQ EKKC_19_
notes: the text names D11N, K13S and E15Q; designed from the dimerization loop of human PHGDH; source: synthetic peptide (GL Biochem, Shanghai; Fmoc solid-phase synthesis, HPLC purified)
B2: cyclic peptide cyc1-11 (peptide)
peptide: CTPQATLTMKNGSWEEKKC
modifications: disulfide 1-19; not fully specified (N-terminus); printed as C_1_TPQA TLTMK NGSWE EKKC_19_
notes: A7L and S8T combined with D11N, K13S, native E15 kept, E16 (peptide numbering); designed from the dimerization loop of human PHGDH; source: synthetic peptide (GL Biochem, Shanghai; Fmoc solid-phase synthesis, HPLC purified)
B3: cyclic peptide cyc1-12 (peptide)
peptide: CTPQATLSMKNGSWEQKKC
modifications: disulfide 1-19; not fully specified (N-terminus); printed as C_1_TPQA TLSMK NGSWE QKKC_19_
notes: contains R16Q, with A7L, D11N and K13S (peptide numbering); designed from the dimerization loop of human PHGDH; source: synthetic peptide (GL Biochem, Shanghai; Fmoc solid-phase synthesis, HPLC purified)
B4: double constrained cyclic peptide cyc2-1 (peptide)
peptide: Ac-CTPQATACMKDGKWCRKKC
modifications: disulfide 1-19, 8-15
notes: cyc1-1 with an added intramolecular disulfide C8-C15 (S8C, E15C); designed from the dimerization loop of human PHGDH; source: synthetic peptide (GL Biochem, Shanghai; Fmoc solid-phase synthesis, stepwise disulfide formation, HPLC purified)
B5: double constrained cyclic peptide cyc2-3 (peptide)
peptide: Ac-CTPQATACMRDGKWCRKKC
modifications: disulfide 1-19, 8-15
notes: cyc2-1 with K10R (peptide numbering); source: synthetic peptide (GL Biochem, Shanghai; Fmoc solid-phase synthesis, stepwise disulfide formation, HPLC purified)
B6: cyclic peptide cyc1-2 (peptide)
peptide: CTPQATLSMKDGKWEEKKC
modifications: disulfide 1-19; not fully specified (N-terminus); printed as C_1_TPQA TLSMK DGKWE EKKC_19_
notes: cyc1-1 with A7L and R16E (peptide numbering); designed from the dimerization loop of human PHGDH; source: synthetic peptide (GL Biochem, Shanghai; Fmoc solid-phase synthesis, HPLC purified)
B7: cyclic peptide cyc1-6 (peptide)
peptide: CTPDATLSMKDGKWEEKKC
modifications: disulfide 1-19; not fully specified (N-terminus); printed as C_1_TPDA TLSMK DGKWE EKKC_19_
notes: cyc1-2 with Q4D (peptide numbering); designed from the dimerization loop of human PHGDH; source: synthetic peptide (GL Biochem, Shanghai; Fmoc solid-phase synthesis, HPLC purified)

Tests used:
[1] = target: T1, full-length PHGDH (1-533); assay: full-length PHGDH enzyme activity assay (NADH fluorescence); format: biochemical
Procedure: (§1) PHGDH activity in the presence of peptides was measured in 96-well plates (100 μL per well) at 25 °C, through monitoring the NADH fluorescence (excitation at 360 nm and emission at 460 nm) over time. PAST1 and its substrate glutamate were also included in order to prevent product inhibition. In the enzyme assays, protein expression and purification, including the truncated version of PHGDH (sPHGDH, 1-307), the full-length PHGDH (1-533), and PAST1, were carried out as described in our previous papers. To evaluate the effects of peptides on enzyme activity, the peptides were pre-incubated with enzyme samples (sPHGDH 453.3 nM or PHGDH 30.9 nM) in the assay buffer (HEPES 50 mM, pH 7.5, 10 mM MgCl2, and 1 mM EDTA) for 12 h. Then, 1.98 μM PAST1, 1 mM NAD^+, and 30 mM glutamate were added and pre-incubated for 10 min before initiating the enzyme reaction via the addition of the substrate (1 mM 3-PG). Fluorescence signals were recorded for 3 min with the kinetics-reading mode of the Biotek plate reader (Synergy). IC50 values were obtained through fitting the data using a three-parameter Hill model of the graph of log dose against the percentage inhibition from three repeated experiments. For those peptides containing two disulfide bonds, a second step of oxidation reaction was carried out to generate the second disulfide pair. […] The purified Acm-protected peptide was then treated with iodine (I2, 1 wt% in MeOH), dropwise under acidic conditions until the solution became brown.

sPHGDH (1-307) = target: T2, sPHGDH (1-307); assay: sPHGDH enzyme activity assay (NADH fluorescence); format: biochemical
Procedure: as §1

[2] = target: T3, truncated version of PHGDH (sPHGDH, …); assay: cell-based or functional assay
[3] = target: T3, truncated version of PHGDH (sPHGDH, …); assay: MST; sPHGDH labelled with RED-NHS, 20 nM final; peptides in 16 points, 1:2 dilutions from 0.5 mM; 50 mM HEPES pH 7.5, 1 mM EDTA, 10 mM MgCl2, 100 mM NaCl, 0.005% Tween 20; incubated 16 h at room temperature; 1:1 binding mode; apparent; conditions: both partners purified
[4] = target: T4, full-length PHGDH (1-533); assay: cell-based or functional assay
[5] = read-out: IC50 value (μM), full-length PHGDH activity
[6] = sPHGDH, 12 h pre-incubation, read-out: IC50 Value

Molecule | IC50 of inhibition of sPHGDH enzyme activity (NADH fluorescence); the pair blocked is the sPHGDH homo-dimer (m1+m1) [2] | Kd [3] | IC50 of inhibition of full-length PHGDH enzyme activity (NADH fluorescence); the pair blocked is the PHGDH homo-oligomer (m2+m2) [4] | other results
CSCC[C@@H]1NC(=O)[C@H]([C@@H](C)O)NC(=O)[C@H](CC(C)C)NC(=O)[C@H]([C@@H](C)O)NC(=O)[C@H](C)NC(=O)[C@H](CCC(N)=O)NC(=O)[C@@H]2CCCN2C(=O)[C@H]([C@@H](C)O)NC(=O)[C@@H](NC(C)=O)CSSC[C@@H](C(=O)O)NC(=O)[C@H](CCCCN)NC(=O)[C@H](CCCCN)NC(=O)[C@H](CCC(=O)O)NC(=O)[C@H](CCC(=O)O)NC(=O)[C@H](Cc2c[nH]c3ccccc23)NC(=O)[C@H](CCCCN)NC(=O)CNC(=O)[C@H](CC(=O)O)NC(=O)[C@H](CCCCN)NC1=O [Cyc1-7, C1TPQA TLTMK DGKWE EKKC19] (Ac-CTPQATLTMKDGKWEEKKC-OH; disulfide 1-19) |  |  |  | IC50 [1, 5]: 23.5 ± 2 µM; IC50 (sPHGDH (1-307); [6]): 5.6 ± 1.2 µM
CSCC[C@@H]1NC(=O)[C@H](CO)NC(=O)[C@H](C)NC(=O)[C@H]([C@@H](C)O)NC(=O)[C@H](C)NC(=O)[C@H](CCC(N)=O)NC(=O)[C@@H]2CCCN2C(=O)[C@H]([C@@H](C)O)NC(=O)[C@@H](NC(C)=O)CSSC[C@@H](C(=O)O)NC(=O)[C@H](CCCCN)NC(=O)[C@H](CCCCN)NC(=O)[C@H](Cc2c[nH]c3ccccc23)NC(=O)[C@H](CCC(=O)O)NC(=O)[C@H](Cc2c[nH]c3ccccc23)NC(=O)[C@H](CCCCN)NC(=O)CNC(=O)[C@H](CC(=O)O)NC(=O)[C@H](CC(C)C)NC1=O [Cyc1-5, C1TPQA TASML DGKWE WKKC19] (Ac-CTPQATASMLDGKWEWKKC-OH; disulfide 1-19) |  |  |  | IC50 [1, 5]: 37.1 ± 1.7 µM; IC50 (sPHGDH (1-307); [6]): 13.4 ± 2 µM
CSCC[C@@H]1NC(=O)[C@H](CO)NC(=O)[C@H](CC(C)C)NC(=O)[C@H]([C@@H](C)O)NC(=O)[C@H](C)NC(=O)[C@H](CC(=O)O)NC(=O)[C@@H]2CCCN2C(=O)[C@H]([C@@H](C)O)NC(=O)[C@@H](NC(C)=O)CSSC[C@@H](C(=O)O)NC(=O)[C@H](CCCCN)NC(=O)[C@H](CCCCN)NC(=O)[C@H](CCC(=O)O)NC(=O)[C@H](CCC(=O)O)NC(=O)[C@H](Cc2c[nH]c3ccccc23)NC(=O)[C@H](CCCCN)NC(=O)CNC(=O)[C@H](CC(=O)O)NC(=O)[C@H](CCCCN)NC1=O [Cyc1-6, C1TPDA TLSMK DGKWE EKKC19] (Ac-CTPDATLSMKDGKWEEKKC-OH; disulfide 1-19) |  |  |  | IC50 [1, 5]: 24.6 ± 2.3 µM; IC50 (sPHGDH (1-307); [6]): 5.1 ± 0.4 µM
CSCC[C@@H]1NC(=O)[C@@H]2CSSC[C@H](NC(=O)[C@H](Cc3c[nH]c4ccccc34)NC(=O)[C@H](CCCCN)NC(=O)CNC(=O)[C@H](CC(=O)O)NC(=O)[C@H](CC(C)C)NC1=O)C(=O)N[C@@H](CCC(=O)O)C(=O)N[C@@H](CCCCN)C(=O)N[C@@H](CCCCN)C(=O)N[C@H](C(=O)O)CSSC[C@H](NC(C)=O)C(=O)N[C@@H]([C@@H](C)O)C(=O)N1CCC[C@H]1C(=O)N[C@@H](CCC(N)=O)C(=O)N[C@@H](C)C(=O)N[C@@H]([C@@H](C)O)C(=O)N[C@@H](C)C(=O)N2 [Cyc2-6, C1TPQA TAC8ML DGKWC15 EKKC19] (Ac-CTPQATACMLDGKWCEKKC-OH; disulfide 1-19, 8-15) |  |  |  | IC50 ([1]; IC50 value (μM), full-length PHGDH activity): 47.1 ± 5.2 µM; IC50 (sPHGDH (1-307)): 15 ± 1 µM
B1 | 4.7 µM | 9.8 ± 2.2 µM |  | 
B2 | 5.4 µM | 23.1 ± 4.2 µM | 16.2 µM | 
B3 | 5.6 µM |  | 20.3 µM | 
B4 | 12 µM | 3.3 ± 0.8 µM | 37.3 µM | 
B5 | 5.2 µM |  | 32.9 µM | 
B6 | 6.4 µM | 11.4 ± 3 µM |  | 
B7 | 5.1 µM | 24.8 ± 7.1 µM |  | 
